Experimental data taken from publication PMC9201945 (Frontiers in Molecular Neuroscience, 2022).

Assays:
GFP-PICK1 BAR domain = experiment: cross-linking; HEK293 cells in 2 ml PBS with 0.3 mM DSS for 20 min at room temperature, quenched with 50 mM Tris, lysed, Western blot (anti-GFP or anti-PICK1); for untagged PICK1 after 5 min with 3 μM ionomycin and a range of extracellular CaCl2
[1] = target: the molecule itself; experiment: as above
[2] = target: the molecule itself; experiment: cross-linking; 100 nM purified his6 protein in 150 mM NaCl, 20 mM HEPES pH 7.4, 5 mM HEDTA, CaCl2 to give [Ca2+]free of 0, 2, 5, 12, 26 μM; 10 μM DSS for 20 min at room temperature, quenched with 50 mM Tris; Western blot with anti-PICK1

Sequence of GFP-PICK1 BAR domain (domain or fragment) (Q9EP80 whole entry, the tested form may be a part): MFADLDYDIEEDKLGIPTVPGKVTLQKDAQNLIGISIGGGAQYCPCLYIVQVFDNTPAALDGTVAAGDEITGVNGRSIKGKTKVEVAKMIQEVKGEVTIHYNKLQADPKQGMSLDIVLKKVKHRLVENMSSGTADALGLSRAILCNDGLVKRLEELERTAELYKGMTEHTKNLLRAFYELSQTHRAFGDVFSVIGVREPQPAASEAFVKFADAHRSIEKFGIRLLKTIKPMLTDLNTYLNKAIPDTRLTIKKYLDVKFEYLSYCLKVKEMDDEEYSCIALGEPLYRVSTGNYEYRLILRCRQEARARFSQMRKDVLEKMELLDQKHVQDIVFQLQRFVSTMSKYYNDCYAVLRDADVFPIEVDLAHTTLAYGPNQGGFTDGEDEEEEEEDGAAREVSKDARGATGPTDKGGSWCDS

Row | Molecule | stoichiometry N [1] | stoichiometry N [2] | further results
1 | GFP-PICK1 BAR domain (domain or fragment) |  |  | stoichiometry N (GFP-PICK1 BAR domain): 2
2 | GFP-Endophilin A1 (natural protein, UniProt Q99962 1-352, looked up, Endophilin A1, BAR domain protein; plasmid a gift from Dr. Ira Milosevic; The methods name only one 'GFP-endophilin'; source: HEK293, transfected, cross-linked in cells, in lysate) MSVAGLKKQFHKATQKVSEKVGGAEGTKLDDDFKEMERKVDVTSRAVMEIMTKTIEYLQPNPASRAKLSMINTMSKIRGQEKGPGYPQAEALLAEAMLKFGRELGDDCNFGPALGEVGEAMRELSEVKDSLDIEVKQNFIDPLQNLHDKDLREIQHHLKKLEGRRLDFDYKKKRQGKIPDEELRQALEKFDESKEIAESSMFNLLEMDIEQVSQLSALVQAQLEYHKQAVQILQQVTVRLEERIRQASSQPRREYQPKPRMSLEFPTGDSTQPNGGLSHTGTPKPSGVQMDQPCCRALYDFEPENEGELGFKEGDIITLTNQIDENWYEGMLHGHSGFFPINYVEILVALPH | 2 |  | 
3 | his6ΔNT-PICK1 (natural protein, UniProt Q9EP80 1-416, looked up, source: E. coli BL21(DE3), pET28, purified (Ni-NTA)) MFAKLGIPTVPGKVTLQKDAQNLIGISIGGGAQYCPCLYIVQVFDNTPAALDGTVAAGDEITGVNGRSIKGKTKVEVAKMIQEVKGEVTIHYNKLQADPKQGMSLDIVLKKVKHRLVENMSSGTADALGLSRAILCNDGLVKRLEELERTAELYKGMTEHTKNLLRAFYELSQTHRAFGDVFSVIGVREPQPAASEAFVKFADAHRSIEKFGIRLLKTIKPMLTDLNTYLNKAIPDTRLTIKKYLDVKFEYLSYCLKVKEMDDEEYSCIALGEPLYRVSTGNYEYRLILRCRQEARARFSQMRKDVLEKMELLDQKHVQDIVFQLQRFVSTMSKYYNDCYAVLRDADVFPIEVDLAHTTLAYGPNQGGFTDGEDEEEEEEDGAAREVSKDARGATGPTDKGGSWCDS |  | 2 | 
4 | his64A-PICK1 (natural protein, UniProt Q9EP80 1-416, looked up, PICK1 with residues 271DDEE274 in the BAR domain substituted by alanines; source: E. coli BL21(DE3), pET28, purified (Ni-NTA)) MFADLDYDIEEDKLGIPTVPGKVTLQKDAQNLIGISIGGGAQYCPCLYIVQVFDNTPAALDGTVAAGDEITGVNGRSIKGKTKVEVAKMIQEVKGEVTIHYNKLQADPKQGMSLDIVLKKVKHRLVENMSSGTADALGLSRAILCNDGLVKRLEELERTAELYKGMTEHTKNLLRAFYELSQTHRAFGDVFSVIGVREPQPAASEAFVKFADAHRSIEKFGIRLLKTIKPMLTDLNTYLNKAIPDTRLTIKKYLDVKFEYLSYCLKVKEMAAAAYSCIALGEPLYRVSTGNYEYRLILRCRQEARARFSQMRKDVLEKMELLDQKHVQDIVFQLQRFVSTMSKYYNDCYAVLRDADVFPIEVDLAHTTLAYGPNQGGFTDGEDEEEEEEDGAAREVSKDARGATGPTDKGGSWCDS |  | 2 | 
5 | Amphiphysin2-GFP (natural protein, UniProt O00499 1-593, looked up, Amphiphysin 2, BAR domain protein; plasmid a gift from Dr. Emmanuel Boucrot; Called Amphiphysin2-GFP in the methods and ^GFPAmphiphysin in the results and the legend; also called ^GFPAmphiphysin; ^GFPamphiphysin; source: HEK293, transfected, cross-linked in cells, in lysate) MAEMGSKGVTAGKIASNVQKKLTRAQEKVLQKLGKADETKDEQFEQCVQNFNKQLTEGTRLQKDLRTYLASVKAMHEASKKLNECLQEVYEPDWPGRDEANKIAENNDLLWMDYHQKLVDQALLTMDTYLGQFPDIKSRIAKRGRKLVDYDSARHHYESLQTAKKKDEAKIAKPVSLLEKAAPQWCQGKLQAHLVAQTNLLRNQAEEELIKAQKVFEEMNVDLQEELPSLWNSRVGFYVNTFQSIAGLEENFHKEMSKLNQNLNDVLVGLEKQHGSNTFTVKAQPSDNAPAKGNKSPSPPDGSPAATPEIRVNHEPEPAGGATPGATLPKSPSQLRKGPPVPPPPKHTPSKEVKQEQILSLFEDTFVPEISVTTPSQFEAPGPFSEQASLLDLDFDPLPPVTSPVKAPTPSGQSIPWDLWEPTESPAGSLPSGEPSAAEGTFAVSWPSQTAEPGPAQPAEASEVAGGTQPAAGAQEPGETAASEAASSSLPAVVVETFPATVNGTVEGGSGAGRLDLPPGFMFKVQAQHDYTATDTDELQLKAGDVVLVIPFQNPEEQDEGWLMGVKESDWNQHKELEKCRGVFPENFTERVP | 2 |  | 
